B1: KIAA0774 (parent)
chain: FEDEVKRLGWQQQAELQELEERLQ

Variants of: B1
Assay: protein stability index of a GFP-peptide fusion (GPS, HEK-293T) (PSI 1-6); higher = more stable
Settings: c terminus: a fixed tail appended
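Also: lentivirally expressed fusions sorted by FACS into six bins by GFP to DsRed ratio, PSI derived from sequencing read proportions per bin multiplied by bin number.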

Compared with FEDEVKRLGWQCQAELQELEERLQ [Q12C], FEDEVKRLGWQFQAELQELEERLQ [Q12F] is higher in protein stability index: 2.14 for the first, 2.78 for the second.

Going from FEDEVKRLGWQKQAELQELEERLQ [Q12K] to FEDEVKRLGWQPQAELQELEERLQ [Q12P], the protein stability index rises from 4.03 to 5.22.

Compared with FEDEVKRLGWQEQAELQELEERLQ [Q12E], FEDEVKRLGWQYQAELQELEERLQ [Q12Y] is lower in protein stability index: 4.09 for the first, 2.31 for the second.

Going from FEDEVKRLGWQGQAELQELEERLQ [Q12G] to FEDEVKRLGWQLQAELQELEERLQ [Q12L], the protein stability index falls from 4.14 to 2.85.

Going from FEDEVKRLGWQNQAELQELEERLQ [Q12N] to FEDEVKRLGWQWQAELQELEERLQ [Q12W], the protein stability index falls from 4.8 to 2.9.

First: FEDEVKRLGWQDQAELQELEERLQ [Q12D]
Second: FEDEVKRLGWQRQAELQELEERLQ [Q12R]
The protein stability index of the first is higher: 4.85 for the first, 3 for the second.

First: FEDEVKRLGWQHQAELQELEERLQ [Q12H]
Second: FEDEVKRLGWQVQAELQELEERLQ [Q12V]
The protein stability index of the first is higher: 3.1 for the first, 2.83 for the second.

First: FEDEVKRLGWQIQAELQELEERLQ [Q12I]
Second: FEDEVKRLGWQTQAELQELEERLQ [Q12T]
The protein stability index of the first is lower: 2.45 for the first, 3.45 for the second.

Compared with FEDEVKRLGWQSQAELQELEERLQ [Q12S], FEDEVKRLGWQMQAELQELEERLQ [Q12M] is lower in protein stability index: 5.12 for the first, 3.13 for the second.

Going from FEDEVKRLGWQAQAELQELEERLQ [Q12A] to FEDEVSRLGWQQQAELQELEERLQ [K6S], the protein stability index rises from 3.83 to 4.47.

Compared with FEDEVTRLGWQQQAELQELEERLQ [K6T], FEDEVYRLGWQQQAELQELEERLQ [K6Y] is higher in protein stability index: 4.31 for the first, 4.4 for the second.

Compared with FEDEVWRLGWQQQAELQELEERLQ [K6W], FEDEVVRLGWQQQAELQELEERLQ [K6V] is higher in protein stability index: 3.89 for the first, 4.52 for the second.

First: FEDEVKRLGWQQKAELQELEERLQ [Q13K]
Second: FEDEVKRLGWQQCAELQELEERLQ [Q13C]
The protein stability index of the first is lower: 3.77 for the first, 4.83 for the second.

Compared with FEDEVKRLGWQQVAELQELEERLQ [Q13V], FEDEVKRLGWQQEAELQELEERLQ [Q13E] is higher in protein stability index: 3.86 for the first, 5.03 for the second.

Compared with FEDEVKRLGWQQPAELQELEERLQ [Q13P], FEDEVKRLGWQQIAELQELEERLQ [Q13I] is lower in protein stability index: 5.11 for the first, 3.44 for the second.

First: FEDEVKRLGWQQYAELQELEERLQ [Q13Y]
Second: FEDEVKRLGWQQWAELQELEERLQ [Q13W]
The protein stability index of the first is lower: 3.58 for the first, 3.67 for the second.

Compared with FEDEVKRLGWQQSAELQELEERLQ [Q13S], FEDEVKRLGWQQDAELQELEERLQ [Q13D] is lower in protein stability index: 5.01 for the first, 4.76 for the second.

Going from FEDEVKRLGWQQHAELQELEERLQ [Q13H] to FEDEVKRLGWQQFAELQELEERLQ [Q13F], the protein stability index rises from 4.39 to 4.42.

Going from FEDEVKRLGWQQGAELQELEERLQ [Q13G] to FEDEVKRLGWQQTAELQELEERLQ [Q13T], the protein stability index falls from 5.35 to 3.74.

Going from FEDEVKRLGWQQMAELQELEERLQ [Q13M] to FEDEVKRLGWQQRAELQELEERLQ [Q13R], the protein stability index rises from 2.6 to 2.99.

Going from FEDEVKRLGWQQLAELQELEERLQ [Q13L] to FEDEVKRLGWQQAAELQELEERLQ [Q13A], the protein stability index rises from 3.5 to 4.31.

First: FEDEVKRLGWQQNAELQELEERLQ [Q13N]
Second: FEDEVKSLGWQQQAELQELEERLQ [R7S]
The protein stability index of the first is higher: 5.2 for the first, 4.65 for the second.

Compared with FEDEVKELGWQQQAELQELEERLQ [R7E], FEDEVKHLGWQQQAELQELEERLQ [R7H] is lower in protein stability index: 4.53 for the first, 4.04 for the second.

Going from FEDEVKILGWQQQAELQELEERLQ [R7I] to FEDEVKCLGWQQQAELQELEERLQ [R7C], the protein stability index rises from 3.67 to 4.61.

Going from FEDEVKPLGWQQQAELQELEERLQ [R7P] to FEDEVKWLGWQQQAELQELEERLQ [R7W], the protein stability index falls from 4.19 to 4.03.

First: FEDEVKKLGWQQQAELQELEERLQ [R7K]
Second: FEDEVKALGWQQQAELQELEERLQ [R7A]
The protein stability index of the first is lower: 3.32 for the first, 4.65 for the second.

First: FEDEVKGLGWQQQAELQELEERLQ [R7G]
Second: FEDEVKMLGWQQQAELQELEERLQ [R7M]
The protein stability index of the first is higher: 4.9 for the first, 4.41 for the second.

Going from FEDEVKQLGWQQQAELQELEERLQ [R7Q] to FEDEVKFLGWQQQAELQELEERLQ [R7F], the protein stability index falls from 4.79 to 4.32.

Compared with FEDEVKYLGWQQQAELQELEERLQ [R7Y], FEDEVKLLGWQQQAELQELEERLQ [R7L] is lower in protein stability index: 4.21 for the first, 3.68 for the second.

First: FEDEVKNLGWQQQAELQELEERLQ [R7N]
Second: FEDEVKTLGWQQQAELQELEERLQ [R7T]
The protein stability index of the first is lower: 4.12 for the first, 4.45 for the second.

Compared with FEDEVKVLGWQQQAELQELEERLQ [R7V], FEDEVKDLGWQQQAELQELEERLQ [R7D] is higher in protein stability index: 3.9 for the first, 4.89 for the second.

Compared with FEDEVKRQGWQQQAELQELEERLQ [L8Q], FEDEVKRRGWQQQAELQELEERLQ [L8R] is lower in protein stability index: 4.48 for the first, 4.05 for the second.

First: FEDEVKRKGWQQQAELQELEERLQ [L8K]
Second: FEDEVKRHGWQQQAELQELEERLQ [L8H]
The protein stability index of the first is lower: 3.57 for the first, 3.79 for the second.

Compared with FEDEVKRYGWQQQAELQELEERLQ [L8Y], FEDEVKRVGWQQQAELQELEERLQ [L8V] is higher in protein stability index: 3.72 for the first, 4.25 for the second.

First: FEDEVKREGWQQQAELQELEERLQ [L8E]
Second: FEDEVKRTGWQQQAELQELEERLQ [L8T]
The protein stability index of the first is higher: 4.52 for the first, 3.93 for the second.

Going from FEDEVKRIGWQQQAELQELEERLQ [L8I] to FEDEVKRDGWQQQAELQELEERLQ [L8D], the protein stability index rises from 3.86 to 4.77.

First: FEDEVKRAGWQQQAELQELEERLQ [L8A]
Second: FEDEVKRWGWQQQAELQELEERLQ [L8W]
The protein stability index of the first is higher: 3.66 for the first, 3.4 for the second.

First: FEDEVKRPGWQQQAELQELEERLQ [L8P]
Second: FEDEVKRSGWQQQAELQELEERLQ [L8S]
The protein stability index of the first is higher: 4.45 for the first, 3.88 for the second.

First: FEDEVKRFGWQQQAELQELEERLQ [L8F]
Second: FEDEVKRNGWQQQAELQELEERLQ [L8N]
The protein stability index of the first is higher: 3.98 for the first, 3.48 for the second.

Going from FEDEVKRGGWQQQAELQELEERLQ [L8G] to FEDEVKRMGWQQQAELQELEERLQ [L8M], the protein stability index falls from 3.42 to 2.83.

Compared with FEDEVKRLGWEQQAELQELEERLQ [Q11E], FEDEVKRLGWWQQAELQELEERLQ [Q11W] is lower in protein stability index: 4.83 for the first, 4.16 for the second.

Compared with FEDEVKRLGWGQQAELQELEERLQ [Q11G], FEDEVKRLGWYQQAELQELEERLQ [Q11Y] is lower in protein stability index: 4.84 for the first, 4.76 for the second.

Compared with FEDEVKRLGWAQQAELQELEERLQ [Q11A], FEDEVKRLGWLQQAELQELEERLQ [Q11L] is higher in protein stability index: 3.64 for the first, 4.46 for the second.

Going from FEDEVKRLGWTQQAELQELEERLQ [Q11T] to FEDEVKRLGWHQQAELQELEERLQ [Q11H], the protein stability index rises from 3.3 to 5.08.

First: FEDEVKRLGWVQQAELQELEERLQ [Q11V]
Second: FEDEVKRLGWKQQAELQELEERLQ [Q11K]
The protein stability index of the first is lower: 1.72 for the first, 4.41 for the second.

Compared with FEDEVKRLGWMQQAELQELEERLQ [Q11M], FEDEVKRLGWSQQAELQELEERLQ [Q11S] is higher in protein stability index: 3.79 for the first, 4.4 for the second.

First: FEDEVKRLGWFQQAELQELEERLQ [Q11F]
Second: FEDEVKRLGWCQQAELQELEERLQ [Q11C]
The protein stability index of the first is lower: 3.73 for the first, 3.86 for the second.
